The series deals with the molecule itself. The experiment in a line: transmission electron microscopy + FTIR; negative-stain TEM of the samples fibrillated in Mueller-Hinton medium; FTIR of fibril pellets prepared in 50 mM phosphate buffer pH 7.4.

Where no end group is shown, it is not given here.

B1: magainin 2a (peptide)
peptide: GIGKFLHSAKKFGKAFVGEIMNS-NH2
notes: magainin 2, antimicrobial peptide of Xenopus laevis skin secretions, cut from the magainins precursor; Forms fibrils (many copies); source: synthetic peptide (solid-phase synthesis, Fmoc chemistry; reverse phase HPLC purified)
For B1, the binding result is reported as “binds”.

Source of the values: paper PMC7554302, “The Reversible Non-covalent Aggregation Into Fibers of PGLa and Magainin 2 Preserves Their Antimicrobial Activity and Synergism” (Frontiers in Cellular and Infection Microbiology, 2020).
